Test results from patent US20170101470A1 (PROTHENA BIOSCIENCES, published 2017).

T1: human MCAM-Fc protein (extracellular domain of human MCAM fused to human IgG) (human, UniProt P43121 24-559)
T1 construct: also called hMCAM-Fc; MCAMhFc
T1 chain: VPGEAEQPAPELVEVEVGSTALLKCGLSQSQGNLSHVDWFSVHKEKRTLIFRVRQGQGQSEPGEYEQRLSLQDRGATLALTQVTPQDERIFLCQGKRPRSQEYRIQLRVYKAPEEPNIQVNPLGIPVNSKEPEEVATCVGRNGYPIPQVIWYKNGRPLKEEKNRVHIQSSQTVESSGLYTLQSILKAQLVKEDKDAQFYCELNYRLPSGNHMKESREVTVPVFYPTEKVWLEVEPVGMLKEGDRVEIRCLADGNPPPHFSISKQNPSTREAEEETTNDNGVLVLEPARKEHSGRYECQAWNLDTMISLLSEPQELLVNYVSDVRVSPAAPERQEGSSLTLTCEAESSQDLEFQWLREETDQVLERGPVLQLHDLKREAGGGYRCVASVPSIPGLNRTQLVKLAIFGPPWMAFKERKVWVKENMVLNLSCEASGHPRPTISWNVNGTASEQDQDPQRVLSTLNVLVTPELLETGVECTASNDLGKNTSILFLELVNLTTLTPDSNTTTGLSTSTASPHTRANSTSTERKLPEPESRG

T2: human MCAM domain 3 hFc construct (human, UniProt P43121 244-321)
T2 construct: One of the 'various MCAMhFc domains' loaded on the ForteBio sensors; also called MCAMhFc domain 3
T2 sequence: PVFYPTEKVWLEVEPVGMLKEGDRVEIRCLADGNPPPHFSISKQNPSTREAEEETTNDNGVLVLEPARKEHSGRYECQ

T3: human MCAM expressed on CHO cells (full length human MCAM gene) (human, UniProt P43121 24-646)
T3 construct: also called hMCAM expressing CHO cells; CD146
T3 chain: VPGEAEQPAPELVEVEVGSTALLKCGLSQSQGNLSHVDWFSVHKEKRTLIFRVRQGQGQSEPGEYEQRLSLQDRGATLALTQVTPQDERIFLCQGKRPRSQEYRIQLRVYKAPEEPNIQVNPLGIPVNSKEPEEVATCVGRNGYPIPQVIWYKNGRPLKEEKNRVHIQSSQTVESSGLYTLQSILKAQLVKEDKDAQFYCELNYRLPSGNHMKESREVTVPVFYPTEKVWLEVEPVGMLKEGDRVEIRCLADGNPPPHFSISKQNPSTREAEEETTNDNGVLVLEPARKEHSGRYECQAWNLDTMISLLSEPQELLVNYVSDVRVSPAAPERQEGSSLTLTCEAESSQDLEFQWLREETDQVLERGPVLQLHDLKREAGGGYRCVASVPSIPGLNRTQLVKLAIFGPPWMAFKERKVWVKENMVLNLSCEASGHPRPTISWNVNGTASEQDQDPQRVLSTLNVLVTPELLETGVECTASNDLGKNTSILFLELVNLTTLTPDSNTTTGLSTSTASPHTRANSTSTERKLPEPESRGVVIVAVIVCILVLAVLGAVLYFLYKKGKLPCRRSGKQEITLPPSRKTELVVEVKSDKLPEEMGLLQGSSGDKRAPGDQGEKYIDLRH

T4: human MCAM domains 1 and 2 hFc construct (human, UniProt P43121 19-242)
T4 construct: One of the 'various MCAMhFc domains' loaded on the ForteBio sensors
T4 sequence: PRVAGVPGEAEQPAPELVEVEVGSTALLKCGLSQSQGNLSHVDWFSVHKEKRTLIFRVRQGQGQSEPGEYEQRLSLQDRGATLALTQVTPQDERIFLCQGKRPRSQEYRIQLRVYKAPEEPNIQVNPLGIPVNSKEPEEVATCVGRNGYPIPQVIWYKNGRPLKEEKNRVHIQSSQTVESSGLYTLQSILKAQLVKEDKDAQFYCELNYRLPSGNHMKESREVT

T5: human MCAM domain 1 hFc construct (human, UniProt P43121 19-129)
T5 construct: One of the 'various MCAMhFc domains' loaded on the ForteBio sensors; also called MCAMhFc domain 1
T5 sequence: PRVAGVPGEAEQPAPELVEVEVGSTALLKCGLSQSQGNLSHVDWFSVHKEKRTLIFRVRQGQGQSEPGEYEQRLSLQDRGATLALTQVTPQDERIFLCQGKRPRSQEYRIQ

T6: human MCAM domain 2 hFc construct (human, UniProt P43121 139-242)
T6 construct: One of the 'various MCAMhFc domains' loaded on the ForteBio sensors; also called MCAMhFc domain 2
T6 sequence: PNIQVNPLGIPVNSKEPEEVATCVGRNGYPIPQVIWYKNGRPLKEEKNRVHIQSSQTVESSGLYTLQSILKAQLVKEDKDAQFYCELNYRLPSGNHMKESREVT


Columns and labels:
[1] = molecular target: T1, human MCAM-Fc protein (extracellular …); experiment: summary sentence of Example 3 (ForteBio, MCAMhFc)
Excerpt: (§1) The following protocol was used: ForteBio anti-human IgG Fc biosensors were used to immobilize various MCAMhFc domains including full length MCAMhFc protein on to biosensor surface. […] After loading these samples into a black 96 well plate, the Octet Red was programmed as follows: 60 seconds for baseline #1; 180 seconds for loading various domains; 60 seconds for baseline #2; 180 seconds for association of antibody to domain; and 240 seconds for dissociation of antibody from domain.
(§2) Reagents and Supplies Used: [0358] 1. MCAMhFc final concentration @ 5 ug/ml [0359] […] 3. ForteBio anti-human IgG Fc Capture (AHC) biosensors for kinetics experiments, cat#18-5060 [0361] 4. Block 96 well plate from Greiner Bio-one, cat#655209 [0362] 5. ForteBio Octet Red machine [0363] 6. Fresh tissue culture medium, DMEM with 20% FCS, was used as buffer for dilution

[2] = molecular target: T2, human MCAM domain 3 hFc construct; experiment: ForteBio Octet Red, MCAMhFc domains on anti-human IgG Fc sensors, antibody at 5 ug/ml
Excerpt: as §1, §2

[3] = molecular target: T3, human MCAM expressed on CHO cells (full …); experiment: flow cytometry: blocking of recombinant human laminin 411 (20 ug/ml) binding to CHO cells expressing human MCAM
Description: The 87 independent mouse fusion clones and 26 independent rat fusion clones described in Example 1 above as being capable of (i) binding to human MCAM, and (ii) blocking the interaction between human MCAM and the α-4 chain of laminin were further characterized as follows. First, IC50 quantitation for the ability of the monoclonal antibody to block the binding of human MCAM to the α-4 chain of laminin was determined as follows. CHO cells expressing human MCAM were incubated with an anti-human MCAM antibody (at various concentrations) for 30 minutes at 4 degrees Celsius. […] Unbound laminin was then washed away, and the laminin bound to the surface of the cells was detected with fluorescently labeled anti-laminin antibodies. After washing, the amount of laminin bound to the surface was detected by flow cytometry, and IC50s were calculated based on the mean fluorescent intensity.
Amino acid and nucleic acid sequences of the heavy and light chains of these antibodies, and their hypervariable regions, are provided in SEQ ID NOs:29-92. […] As such, each of these specific monoclonal antibodies was very capable of binding to human MCAM and inhibiting the interaction of cell-expressed human MCAM with its α-4 laminin binding ligand.

[4] = molecular target: T4, human MCAM domains 1 and 2 hFc construct; experiment: ForteBio Octet Red, MCAMhFc domains on anti-human IgG Fc sensors
Excerpt: as §1, §2

[5] = molecular target: T5, human MCAM domain 1 hFc construct; experiment: as above
Excerpt: as §1, §2

[6] = molecular target: T6, human MCAM domain 2 hFc construct; experiment: as above
Excerpt: as §1, §2

[7] = molecular target: laminin α-4 (UniProt Q16363 25-1823); experiment: FACS on MCAM mutants displayed on mammalian cells
Sequence of laminin α-4 (Q16363 25-1823): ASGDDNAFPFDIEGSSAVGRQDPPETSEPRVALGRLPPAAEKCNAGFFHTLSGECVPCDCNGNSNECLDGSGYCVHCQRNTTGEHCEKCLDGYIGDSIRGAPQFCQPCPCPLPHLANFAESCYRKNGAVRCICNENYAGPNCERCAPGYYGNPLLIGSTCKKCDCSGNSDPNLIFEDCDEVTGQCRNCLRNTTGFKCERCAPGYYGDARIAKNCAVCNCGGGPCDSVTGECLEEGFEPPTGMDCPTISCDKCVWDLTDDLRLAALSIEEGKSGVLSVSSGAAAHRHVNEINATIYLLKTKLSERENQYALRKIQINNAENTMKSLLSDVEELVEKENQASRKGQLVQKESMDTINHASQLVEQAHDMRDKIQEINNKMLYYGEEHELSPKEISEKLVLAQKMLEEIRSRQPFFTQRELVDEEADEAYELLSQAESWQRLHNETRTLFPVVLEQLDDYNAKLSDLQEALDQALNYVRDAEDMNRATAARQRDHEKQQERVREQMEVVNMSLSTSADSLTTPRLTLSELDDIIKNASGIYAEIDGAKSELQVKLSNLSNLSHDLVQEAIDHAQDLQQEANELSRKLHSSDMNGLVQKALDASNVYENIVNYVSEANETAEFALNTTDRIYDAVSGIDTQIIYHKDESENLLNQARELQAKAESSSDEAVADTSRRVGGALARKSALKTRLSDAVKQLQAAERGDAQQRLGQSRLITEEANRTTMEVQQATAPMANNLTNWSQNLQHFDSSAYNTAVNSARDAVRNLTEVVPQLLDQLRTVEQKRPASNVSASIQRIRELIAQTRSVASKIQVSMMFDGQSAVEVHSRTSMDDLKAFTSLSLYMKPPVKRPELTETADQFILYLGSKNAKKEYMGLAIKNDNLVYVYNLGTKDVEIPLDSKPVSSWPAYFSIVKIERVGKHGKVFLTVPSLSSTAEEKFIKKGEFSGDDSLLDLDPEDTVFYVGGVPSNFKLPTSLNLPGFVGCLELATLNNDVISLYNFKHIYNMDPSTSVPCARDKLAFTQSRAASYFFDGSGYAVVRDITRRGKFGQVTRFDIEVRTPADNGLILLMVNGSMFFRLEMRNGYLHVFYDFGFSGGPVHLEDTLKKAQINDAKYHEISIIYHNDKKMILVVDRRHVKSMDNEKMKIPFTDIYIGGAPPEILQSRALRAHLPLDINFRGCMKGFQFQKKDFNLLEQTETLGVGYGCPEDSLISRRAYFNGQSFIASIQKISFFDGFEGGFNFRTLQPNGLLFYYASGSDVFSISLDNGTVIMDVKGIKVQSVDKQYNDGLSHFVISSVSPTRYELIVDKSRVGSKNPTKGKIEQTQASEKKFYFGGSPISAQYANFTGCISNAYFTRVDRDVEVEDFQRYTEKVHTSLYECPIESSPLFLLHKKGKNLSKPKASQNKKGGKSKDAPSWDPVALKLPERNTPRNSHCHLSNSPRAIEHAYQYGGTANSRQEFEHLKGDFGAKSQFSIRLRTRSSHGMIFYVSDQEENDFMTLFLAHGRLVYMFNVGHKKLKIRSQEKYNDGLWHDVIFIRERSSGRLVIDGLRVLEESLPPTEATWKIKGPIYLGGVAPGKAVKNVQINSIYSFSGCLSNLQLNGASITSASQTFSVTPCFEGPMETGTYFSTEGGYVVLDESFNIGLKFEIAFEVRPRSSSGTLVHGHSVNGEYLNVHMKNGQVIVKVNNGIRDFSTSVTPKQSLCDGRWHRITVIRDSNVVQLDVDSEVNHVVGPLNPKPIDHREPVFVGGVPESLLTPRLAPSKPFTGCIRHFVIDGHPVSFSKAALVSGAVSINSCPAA

| Binder | binding result [1] | binding result [2] | IC50 [3] | binding result [4] | binding result [5] | binding result [6] | binding result [7] |
| --- | --- | --- | --- | --- | --- | --- | --- |
| mouse anti-human MCAM monoclonal antibody clone 1749.1.3 (antibody, V domains shown, Mouse hybridoma antibody) VH: DVKLVESGGDLVKPGGSLKLSCAASGFTFSSYIMSWVRQTPEKRLEWVATISSGGSSTYYPDSVKGRFTISRDNAKNTLYLQMSSLKSEDTAMYYCTRDDDYDVKVFAYWGQGTLVTVSA VL: DIVMSQSPSSLAVSAGEKVTMNCKSSRSLLNSRIRKNYLAWYQQKPGQSPKLLIYWASTRESGVPDRFTGSGSGTDFTLTISSVQAEDLAVYYCKQSYNLLTFGAGTKLELK | binds | binds | 0.545 µg/mL | no binding (tested: 5 ug/ml) | no binding (tested: 5 ug/ml) | no binding (tested: 5 ug/ml) | – |
| human MCAM I141A mutant displayed on mammalian cells (Example 5) (receptor, construct and any tag not described) VPGEAEQPAPELVEVEVGSTALLKCGLSQSQGNLSHVDWFSVHKEKRTLIFRVRQGQGQSEPGEYEQRLSLQDRGATLALTQVTPQDERIFLCQGKRPRSQEYRIQLRVYKAPEEPNAQVNPLGIPVNSKEPEEVATCVGRNGYPIPQVIWYKNGRPLKEEKNRVHIQSSQTVESSGLYTLQSILKAQLVKEDKDAQFYCELNYRLPSGNHMKESREVTVPVFYPTEKVWLEVEPVGMLKEGDRVEIRCLADGNPPPHFSISKQNPSTREAEEETTNDNGVLVLEPARKEHSGRYECQAWNLDTMISLLSEPQELLVNYVSDVRVSPAAPERQEGSSLTLTCEAESSQDLEFQWLREETDQVLERGPVLQLHDLKREAGGGYRCVASVPSIPGLNRTQLVKLAIFGPPWMAFKERKVWVKENMVLNLSCEASGHPRPTISWNVNGTASEQDQDPQRVLSTLNVLVTPELLETGVECTASNDLGKNTSILFLELVNLTTLTPDSNTTTGLSTSTASPHTRANSTSTERKLPEPESRGVVIVAVIVCILVLAVLGAVLYFLYKKGKLPCRRSGKQEITLPPSRKTELVVEVKSDKLPEEMGLLQGSSGDKRAPGDQGEKYIDLRH | – | – | – | – | – | – | no binding |
| human MCAM D216A mutant displayed on mammalian cells (Example 5) (receptor, construct and any tag not described) VPGEAEQPAPELVEVEVGSTALLKCGLSQSQGNLSHVDWFSVHKEKRTLIFRVRQGQGQSEPGEYEQRLSLQDRGATLALTQVTPQDERIFLCQGKRPRSQEYRIQLRVYKAPEEPNIQVNPLGIPVNSKEPEEVATCVGRNGYPIPQVIWYKNGRPLKEEKNRVHIQSSQTVESSGLYTLQSILKAQLVKEAKDAQFYCELNYRLPSGNHMKESREVTVPVFYPTEKVWLEVEPVGMLKEGDRVEIRCLADGNPPPHFSISKQNPSTREAEEETTNDNGVLVLEPARKEHSGRYECQAWNLDTMISLLSEPQELLVNYVSDVRVSPAAPERQEGSSLTLTCEAESSQDLEFQWLREETDQVLERGPVLQLHDLKREAGGGYRCVASVPSIPGLNRTQLVKLAIFGPPWMAFKERKVWVKENMVLNLSCEASGHPRPTISWNVNGTASEQDQDPQRVLSTLNVLVTPELLETGVECTASNDLGKNTSILFLELVNLTTLTPDSNTTTGLSTSTASPHTRANSTSTERKLPEPESRGVVIVAVIVCILVLAVLGAVLYFLYKKGKLPCRRSGKQEITLPPSRKTELVVEVKSDKLPEEMGLLQGSSGDKRAPGDQGEKYIDLRH | – | – | – | – | – | – | no binding |
